Assay results reported in patent publication US20150140120, “STABILIZED APTAMERS TO PLATELET DERIVED GROWTH FACTOR AND THEIR USE AS ONCOLOGY THERAPEUTICS” (ARCHEMIX LLC, published 2015).
Numbering of substitutions follows the chain as printed.

How the values were obtained:
[1] = molecular target: VEGF (UniProt P15692-4 P15692-4:27-191); assay: filter; dot blot; details: chain copies: 2
From the text: (§1) Protein-associated radio-label is captured on the nitrocellulose membrane while the balance of the radio-label is captured on the nylon membrane. The radio-label data is collected on a phosphorimaging plate.

[2] = molecular target: T1, PDGF-BB (human, UniProt P01127 P01127:82-190); assay: filter; recognises VEGF but not PDGF; details: tags: PeproTech (ERK assay: R&D Systems); chain copies: 2 inferred
[3] = molecular target: T1, PDGF-BB; assay: filter; all-DNA ARC126 used in the chimera; dot blot; details: tags: PeproTech (ERK assay: R&D Systems); chain copies: 2 inferred
From the text: as §1

[4] = molecular target: T1, PDGF-BB; assay: filter; dot blot; details: tags: PeproTech (ERK assay: R&D Systems); chain copies: 2 inferred
From the text: as §1

[5] = molecular target: T2, PDGF-AA short form (human, UniProt P04085-2 P04085-2:87-196); assay: filter; 1x SHMCK (Mg, Ca), 0.1 mg/mL tRNA, RT; 2-3 fold lower without tRNA; details: tags: Roche Biomedical (short form); chain copies: 2 inferred; label: 5'-32P
Experimental: (§2) Dot blot binding assays were performed throughout the selection to monitor the protein binding affinity of the pool. Trace ³²P-labeled RNA was combined with PDGF-AA and incubated at room temperature for 30 min in 1× SHMCK plus 0.1 mg/ml tRNA for a final volume of 20 μl. The reaction was added to a dot blot apparatus (Schleicher and Schuell Minifold-1 Dot Blot, Acrylic), assembled (from top to bottom) with nitrocellulose, nylon, and gel blot membranes. RNA that is bound to protein is captured on the nitrocellulose filter, whereas the non-protein bound RNA is captured on the nylon filter.

[6] = molecular target: T3, PDGF-AA (rat, UniProt P28576 P28576:86-204); assay: filter; 1x SHMCK, 0.1 mg/mL tRNA, RT; details: chain copies: 2 inferred; label: 5'-32P
Experimental: as §2

[7] = molecular target: T2, PDGF-AA short form; assay: filter; 1x SHMCK, 0.1 mg/mL tRNA, RT; details: tags: Roche Biomedical (short form); chain copies: 2 inferred; label: 5'-32P
Experimental: as §2

[8] = molecular target: T3, PDGF-AA; assay: filter; N.B., no significant binding; details: chain copies: 2 inferred; label: 5'-32P
Experimental: as §2

[9] = molecular target: T2, PDGF-AA short form; assay: filter; N.B., no significant binding; details: tags: Roche Biomedical (short form); chain copies: 2 inferred; label: 5'-32P
Experimental: as §2

Chain of VEGF (P15692 other isoform, or with tags, fused parts or gaps): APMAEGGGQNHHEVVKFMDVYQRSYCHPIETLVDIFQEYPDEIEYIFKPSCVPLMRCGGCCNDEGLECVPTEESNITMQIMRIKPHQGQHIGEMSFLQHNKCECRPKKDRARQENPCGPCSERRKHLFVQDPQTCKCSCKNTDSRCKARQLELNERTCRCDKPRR
T1 sequence (P01127 82-190, one chain of several): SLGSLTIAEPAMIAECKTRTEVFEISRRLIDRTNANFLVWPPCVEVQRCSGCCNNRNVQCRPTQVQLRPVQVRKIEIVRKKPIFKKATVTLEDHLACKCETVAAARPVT

## AUGCAGUUUGAGAAGUCGCGCAU (XNA, all 2'-OMe; 3' inverted dT) [ARC245]
[1]
  Kd: ~2 nM
[2]
  binding result: no binding

## CAGGCTACGCGTAGAGCATCATGATCCTG (ssDNA, 3' inverted dT (SEQ ID NO: 8)) [deoxyARC126]
[3]
  Kd: ~0.1 nM

B1: TK.131.012.A (mixed)
mixed: CAGGCTACGAUGCAGUUUGAGAAGUCGCGCAUCGTAGAGCATCAGAAATGATCCTG
modifications: DNA (PDGF part) with 2'-OMe VEGF part (ARC245); 3' inverted dT
[1]
  Kd: ~10 nM
[4]
  Kd: ~10 nM

B2: TK.131.012.B (mixed)
mixed: CAGGCTACGUGCAGUUUGAGAAGUCGCGCACGTAGAGCATCAGAAATGATCCTG
modifications: DNA (PDGF part) with 2'-OMe VEGF part (ARC245 lacking first mA-mU pair); 3' inverted dT
[1]
  Kd: ~5 nM
[4]
  Kd: ~10 nM

B3: ARX33P1.D2 (ssRNA)
RNA: GGGAAAAGCGAAUCAUACACAAGACCGGGAACUCGGAUUCUUCGCAUGUGGAUGCGAUCAGUAUGCUCCGCCAGAGACCAACCGAGAA
modifications: 2'-F pyrimidines, 2'-OH purines
[5]
  Kd: 104 nM
[6]
  Kd: 51.7 nM

B4: ARX33P1.E5 (ssRNA)
RNA: B3 RNA with G44A, C55U
modifications: 2'-F pyrimidines, 2'-OH purines
[6]
  Kd: 57.4 nM
[7]
  Kd: 117 nM

B5: ARX33P1.E10 (ssRNA)
RNA: B3 RNA with G29A
modifications: 2'-F pyrimidines, 2'-OH purines
[6]
  Kd: 47.1 nM
[7]
  Kd: 133 nM

B6: ARX33P1.D1 (ssRNA)
RNA: GGGAAAAGCGAAUCAUACACAAGAUCGCCAGGAGCAAAGUCACGGAGGAGUGGGGGUACGAAUGCUCCGCCAGAGACCAACCGAGAA
modifications: 2'-F pyrimidines, 2'-OH purines
[8]
  binding result: no binding
[9]
  binding result: no binding

B7: ARX33P1.E11 (ssRNA)
RNA: GGGAAAAGCGAAUCAUACACAAGAGAGUGGAGGAGGUAUGUAUGGUUUGUGCGUCUGGUGCGGUGCUCCGCCAGAGACCAACCGAGAA
modifications: 2'-F pyrimidines, 2'-OH purines
[8]
  binding result: no binding
[9]
  binding result: no binding
